In US20080050361A1, “STAP[…] […] ANTI-INFECTIVES” (priority 2004, published 2008):

Assay: Heme binding by native and mutant forms of GST-IsdA (electronic spectra, A407/A280)
Conditions: GST-IsdA fusion proteins as expressed and isolated from E. coli; heme scavenged from E. coli cytoplasm; room temperature
Method: Wild type and point mutant proteins were purified as expressed from E. coli and relative heme binding was assessed based upon the ability of the proteins, all expressed in an equivalent fashion, to scavenge and retain association with heme derived from the cytoplasm of E. coli Proteins were adjusted to an equivalent concentration and electronic spectra were recorded using a Cary 500 spectrophotometer (Varian Inc.) with a 1 cm path length and 1 mL quartz cuvettes. All recordings were taken at room temperature.

B1: IsdA: full length (excluding signal peptide and C-terminal sorting sequences) IsdA, amino acids 48-316, GST fusion expressed in E. coli (protein, listed as Staphylococcus aureus)
chain: TEATNATNNQSTQVSQATSQPINFQVQKDGSSEKSHMDDYMQHPGKVIKQNNKYYFQTVLNNASFWKEYKFYNANNQELATTVVNDNKKADTRTINVAVEPGYKSLTTKVHIVVPQINYNHRYTTHLEFEKAIPTLADAAKPNNVKPVQPKPAQPKTPTEQTKPVQPKVEKVKPTVTTTSKVEDNHSTKVVSTDTTKDQTKTQTAHTVKTAQTAQEQNKVQTPVKDVATAKSESNNQAVSDNKSQQTNKVTKHNETPKQASKAKELPKT
modifications: GST fusion
A407/A280 ratio: 0.629
